In patent US20170022291A1 (Adimab, published 2017):
Read-outs that look alike come from different tables or passages of the source.

Key:
[1] = target: T1, EGFR (UniProt P00533 25-645, limits assumed); test: affinity of the EGFR binding region in the IgG-Fab; method not named on the sheet or in the legend
T1 construct: also called Antigen 1

[2] = target: T2, Human Epidermal Growth Factor Receptor 3 (HER3), soluble antigen (human, UniProt P21860 20-643, limits assumed); test: affinity of the HER3 binding region in the IgG-Fab; method not named on the sheet or in the legend
T2 construct: also called b-HER3; b-HER3-HIS

[3] = target: T1, EGFR; test: affinity of the EGFR binding region in the IgG-Fab; method not named on the sheet or in the legend; remark: listed apart in the source
[4] = target: T3, Human Epidermal Growth Factor Receptor 2 (HER2), soluble antigen (human, UniProt P04626 23-652, limits assumed); test: affinity of the HER2 binding region in the IgG-Fab; method not named on the sheet or in the legend
T3 construct: also called b-HER2; b-HER2-HIS

| Kd [1] | Kd [2] | Kd [3] | Kd [4] | Binder |
| --- | --- | --- | --- | --- |
| 290 pM | 49 pM | – | – | N-terminal EGFR::C-terminal HER3 multispecific antibody analog (Analog 3) (bispecific antibody, human IgG1, kappa, IgG-Fab 2+2 format: EGFR VH-CH1-hinge-CH2-CH3-(G4S)3-HER3 VH-CH1, two copies, with four copies of the common light chain; also called N-term-EGFR::C-term-HER3; EGFR-HER3 IgG-Fab) heavy: not shown light: DIQLTQSPSSVSASVGDRVTITCRASQDISSWLAWYQQKPGKAPKLLIYAASSLQSGVPSRFSGSGSGTDFTLTISSLQPEDFATYYCQQEHDFPWTFGGGTKVEIKRTVAAPSVFIFPPSDEQLKSGTASVVCLLNNFYPREAKVQWKVDNALQSGNSQESVTEQDSKDSTYSLSSTLTLSKADYEKHKVYACEVTHQGLSSPVTKSFNRGEC |
| 870 pM | 49 pM | – | – | N-terminal HER3::C-terminal EGFR multispecific antibody analog (Analog 4) (bispecific antibody, human IgG1, kappa, IgG-Fab 2+2 format: HER3 VH-CH1-hinge-CH2-CH3-(G4S)3-EGFR VH-CH1, two copies, with four copies of the common light chain; also called N-term-HER3::C-term-EGFR; HER3-EGFR IgG-Fab) heavy: not shown light: DIQLTQSPSSVSASVGDRVTITCRASQDISSWLAWYQQKPGKAPKLLIYAASSLQSGVPSRFSGSGSGTDFTLTISSLQPEDFATYYCQQEHDFPWTFGGGTKVEIKRTVAAPSVFIFPPSDEQLKSGTASVVCLLNNFYPREAKVQWKVDNALQSGNSQESVTEQDSKDSTYSLSSTLTLSKADYEKHKVYACEVTHQGLSSPVTKSFNRGEC |
| – | – | 170 pM | 8200 pM | N-terminal-EGFR::C-terminal HER2 multispecific antibody analog (Analog 1) (bispecific antibody, IgG-Fab 2+2 format: EGFR VH-CH1-hinge-CH2-CH3-(G4S)3-HER2 VH-CH1, two copies, with four copies of the common light chain; also called N-term-EGF::C-term-HER2; EGFR-HER2 IgG-Fab) heavy: not shown light: DIQLTQSPSTLSASVGDRVTITCRASQAISSWLAWYQQKPGKAPKLLIYDASSLESGVPSRFSGSGSGTEFTLTISSLQPDDFATYYCHQYQSYSWTFGGGTKVEIKRTVAAPSVFIFPPSDEQLKSGTASVVCLLNNFYPREAKVQWKVDNALQSGNSQESVTEQDSKDSTYSLSSTLTLSKADYEKHKVYACEVTHQGLSSPVTKSFNRGEC |
| – | – | 470 pM | 100 pM | N-terminal HER2::C-terminal EGFR multispecific antibody analog (Analog 2) (bispecific antibody, human IgG1, kappa, IgG-Fab 2+2 format: HER2 VH-CH1-hinge-CH2-CH3-(G4S)3-EGFR VH-CH1, two copies, with four copies of the common light chain; also called N-term-HER2::C-term-EGFR; HER2-EGFR IgG-Fab) heavy: not shown light: DIQLTQSPSTLSASVGDRVTITCRASQAISSWLAWYQQKPGKAPKLLIYDASSLESGVPSRFSGSGSGTEFTLTISSLQPDDFATYYCHQYQSYSWTFGGGTKVEIKRTVAAPSVFIFPPSDEQLKSGTASVVCLLNNFYPREAKVQWKVDNALQSGNSQESVTEQDSKDSTYSLSSTLTLSKADYEKHKVYACEVTHQGLSSPVTKSFNRGEC |
